Data from publication PMC5709738 (The EMBO Journal, 2017).

Columns and labels:
[1] = molecular target: T1, fluorescently labelled full-length Ctf19-Mcm21 (Kluyveromyces lactis, UniProt Q6CRN7+Q6CVQ9); test: microscale thermophoresis (MST) of Okp1-derived peptides with full-length Ctf19-Mcm21; assay type: binding, K. lactis; conditions: NT.115 Monolith, 22–25 °C, ~27 nM NT-647-labelled Ctf19-Mcm21, ITC/MST buffer pH 7.5, thermophoresis + T jump, mean and 68% confidence interval, three independent experiments
T1 construct: we purified full-length K. lactis; NT-647-NHS red fluorescent dye on lysine side chains (chemical label); made in house; host or cells: Escherichia coli BL21 Rosetta 2(DE3)pLysS
T1 sequence (Q6CRN7 1-270): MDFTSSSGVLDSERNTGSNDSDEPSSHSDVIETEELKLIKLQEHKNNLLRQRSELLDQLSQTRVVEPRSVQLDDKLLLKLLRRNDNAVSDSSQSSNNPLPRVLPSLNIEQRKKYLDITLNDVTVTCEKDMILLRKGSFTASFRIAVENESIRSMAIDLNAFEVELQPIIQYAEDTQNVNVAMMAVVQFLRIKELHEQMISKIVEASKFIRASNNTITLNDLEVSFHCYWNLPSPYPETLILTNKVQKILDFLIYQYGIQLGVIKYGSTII
T1 sequence (Q6CVQ9 1-293): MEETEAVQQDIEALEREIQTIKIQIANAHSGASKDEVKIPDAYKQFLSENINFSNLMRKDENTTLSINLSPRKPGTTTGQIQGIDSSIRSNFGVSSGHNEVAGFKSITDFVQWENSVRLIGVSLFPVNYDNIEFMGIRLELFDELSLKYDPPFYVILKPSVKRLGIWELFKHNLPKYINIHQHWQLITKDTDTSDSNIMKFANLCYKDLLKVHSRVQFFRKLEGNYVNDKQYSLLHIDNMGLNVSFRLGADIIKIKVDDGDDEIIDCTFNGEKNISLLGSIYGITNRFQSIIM
Procedure: For our MST measurements (Wienken et al, 2010), we labelled purified Ctf19‐Mcm21 with a red fluorescent dye (NT‐647‐NHS), which covalently modifies lysine side chains, in company‐provided “labelling buffer” at 22–25°C, according to the manufacturer's instructions (Nanotemper Technologies), with a 1:4 molar ratio of Ctf19‐Mcm21 and dye. We transferred fluorescently labelled Ctf19‐Mcm21 and Okp1‐derived peptide, or variants of Okp1‐derived peptide (Fig 6G), to ITC/MST buffer. We prepared dilution series of peptides, and combined with a uniform volume of Ctf19‐Mcm21 in PCR tubes, before transferring to NT.115 MST premium‐coated glass capillaries (Nanotemper Technologies). For all our measurements, the total Ctf19‐Mcm21 concentration in the capillaries was ~27 nM. We measured MST data on an NT.115 Monolith BLUE/RED instrument (Nanotemper Technologies) at 22–25°C. Samples were heated with an infrared laser (λ: 1,474 nm ± 15 nm) set to 20% MST power (30 s on; 5 s off), and fluorophores excited with a laser (excitation λ: 625 nm; emission λ: 680 nm) set to 60% LED power. For all our MST measurements, fluorescence intensity counts were 350–500. We derived our binding data from the “thermophoresis + T jump” fluorescence signal. For each unique peptide sample, we measured data from three separately prepared dilution series. […]

dynamic light scattering = assay type: physicochemical; conditions: DLS at 15 °C, ~21 µM (assuming COMA dimer) or similar concentrations
[2] = molecular target: T2, full-length Ctf19-Mcm21 (K. lactis) (Kluyveromyces lactis, UniProt Q6CRN7 1-270; Q6CVQ9 1-293); test: ITC
T2 chain 1: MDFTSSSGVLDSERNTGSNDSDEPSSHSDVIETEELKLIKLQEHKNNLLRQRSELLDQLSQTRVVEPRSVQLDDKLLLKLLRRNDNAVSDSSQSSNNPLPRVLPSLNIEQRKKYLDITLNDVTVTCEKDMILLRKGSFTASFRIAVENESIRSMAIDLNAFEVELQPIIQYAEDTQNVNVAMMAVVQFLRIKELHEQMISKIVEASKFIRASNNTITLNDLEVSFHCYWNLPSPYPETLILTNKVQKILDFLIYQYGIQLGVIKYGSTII
T2 chain 2: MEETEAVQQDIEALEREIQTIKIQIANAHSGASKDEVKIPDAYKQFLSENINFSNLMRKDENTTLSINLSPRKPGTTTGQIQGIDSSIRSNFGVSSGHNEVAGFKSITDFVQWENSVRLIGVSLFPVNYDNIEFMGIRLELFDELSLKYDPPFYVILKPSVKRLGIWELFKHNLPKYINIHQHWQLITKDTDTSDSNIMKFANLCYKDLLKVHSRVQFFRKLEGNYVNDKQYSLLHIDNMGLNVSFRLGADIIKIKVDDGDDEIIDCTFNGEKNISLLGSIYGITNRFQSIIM

[3] = molecular target: T3, full-length Ctf19-Mcm21 (K. lactis) (Kluyveromyces lactis, UniProt Q6CRN7 1-270; Q6CVQ9 1-293); test: MST; Ctf19-Mcm21 labelled with NT-647-NHS on lysines, ~27 nM; dilution series of peptide; 22-25°C; ITC/MST buffer; three dilution series; conditions: both partners purified
T3 construct: Ctf19 of Kluyveromyces lactis; Mcm21 of Kluyveromyces lactis; for microscale thermophoresis it was labelled on lysine side chains with the red dye NT-647-NHS; also stands for the Ctf19-Mcm21 subassembly of COMA in nanoflow mass spectra; source: E. coli BL21 Rosetta 2(DE3)pLysS, co-expressed, purified
T3 sequence (looked up) 1: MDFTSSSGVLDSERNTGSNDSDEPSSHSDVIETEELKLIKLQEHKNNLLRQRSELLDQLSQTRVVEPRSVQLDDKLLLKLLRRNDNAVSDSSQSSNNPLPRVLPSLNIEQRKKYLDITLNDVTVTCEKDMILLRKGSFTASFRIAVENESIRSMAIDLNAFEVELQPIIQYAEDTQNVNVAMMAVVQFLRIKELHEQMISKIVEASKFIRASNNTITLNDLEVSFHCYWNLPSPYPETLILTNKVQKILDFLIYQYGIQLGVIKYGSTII
T3 sequence (looked up) 2: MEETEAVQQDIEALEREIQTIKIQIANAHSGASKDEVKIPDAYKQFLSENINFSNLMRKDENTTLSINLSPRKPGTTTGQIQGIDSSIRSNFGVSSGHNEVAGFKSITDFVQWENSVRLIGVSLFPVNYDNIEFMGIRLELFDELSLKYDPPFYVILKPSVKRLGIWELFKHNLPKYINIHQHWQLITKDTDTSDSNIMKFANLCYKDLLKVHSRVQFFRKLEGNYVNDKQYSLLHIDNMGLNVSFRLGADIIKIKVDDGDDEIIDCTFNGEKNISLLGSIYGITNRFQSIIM

[4] = molecular target: T3, full-length Ctf19-Mcm21 (K. lactis); test: ITC; peptide at 120 uM injected into 13 uM Ctf19-Mcm21 in the cell, 25°C, ITC/MST buffer; single set of sites fit; three independent measurements; conditions: both partners purified
[5] = molecular target: T4, Nkp1-Nkp2 heterodimer (K. lactis) (Kluyveromyces lactis, UniProt Q6CPR4 1-210; Q6CSR8 1-151); test: SEC; Superdex 200 HiLoad 10/600 prep grade column (Appendix Fig S7B); conditions: both partners purified
T4 construct: Nkp1 of Kluyveromyces lactis; Nkp2 of Kluyveromyces lactis; also called NN; source: E. coli BL21 Rosetta 2(DE3)pLysS, purified
T4 sequence (looked up) 1: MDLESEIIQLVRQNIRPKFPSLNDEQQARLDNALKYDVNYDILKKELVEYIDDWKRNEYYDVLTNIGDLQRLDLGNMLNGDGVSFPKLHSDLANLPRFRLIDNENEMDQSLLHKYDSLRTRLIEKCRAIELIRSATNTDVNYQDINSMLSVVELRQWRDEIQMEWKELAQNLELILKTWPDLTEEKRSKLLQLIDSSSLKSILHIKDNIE
T4 sequence (looked up) 2: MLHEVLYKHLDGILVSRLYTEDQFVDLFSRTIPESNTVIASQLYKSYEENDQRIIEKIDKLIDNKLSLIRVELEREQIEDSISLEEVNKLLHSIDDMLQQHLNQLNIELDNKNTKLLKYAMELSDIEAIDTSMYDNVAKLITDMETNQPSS

N330A-K332P: Okp1 peptide variant differing in two residue positions (SNEIYQQDKIDFALPLKTDF)
dissociation constant (Kd) [1]: no detectable binding

COMA-Nkp1-Nkp2: reconstituted COMA bound with Nkp1-Nkp2
hydrodynamic radius (Rh) (dynamic light scattering): 13.7 nm

B1: Okp1-derived synthetic peptide with the Ctf19-Mcm21 binding motif (Okp1 residues 318-337) (peptide, UniProt Q6CJY0 318-337, looked up)
peptide: SNEIYQQDKIDFNLKLKTDF
notes: also called Okp1-derived peptide; source: synthetic peptide (Protein Chemistry core facility, IMP, Vienna)
Kd [2]: 43 nM
Kd [3]: ~80 nM
Kd [4]: ~40 nM

B2: Okp1_295-383 (K. lactis) (domain or fragment, Kluyveromyces lactis, UniProt Q6CJY0 295-383, looked up)
chain: KTMHPSLSVALSNTFGLIKDDKMSNEIYQQDKIDFNLKLKTDFSKPLISEKEENSLNGLTNAMDNNRELVNEIFGKISALLQPKKNSNE
notes: source: E. coli BL21 Rosetta 2(DE3)pLysS, co-expressed with Ctf19 and Mcm21 versions, purified
binding result [5]: binds
